According to patent publication US20240309389A1, “Chimeric FCeRI a-Chain Gene, Chimeric FCeRI a-Chain Protein, Cells, Analysis Kit and Analysis Method” (TEIKYO HEISEI UNIVERSITY, priority 2021, published 2024):

Target: Human-Rat chimeric FcεRI α-chain protein (chimeric FcεRI on the cell membrane of HuRa clones) (human (extracellular domain) and rat (transmembrane and intracellular domains); rat) (UniProt P13386)
Experiment: cell-based or functional assay

Sequence of Human-Rat chimeric FcεRI α-chain protein (chimeric FcεRI on the cell membrane of HuRa clones) (human (extracellular domain) and rat (transmembrane and intracellular domains); rat) (chain, as listed by the source mutant, form in doubt, chain 1 of 3): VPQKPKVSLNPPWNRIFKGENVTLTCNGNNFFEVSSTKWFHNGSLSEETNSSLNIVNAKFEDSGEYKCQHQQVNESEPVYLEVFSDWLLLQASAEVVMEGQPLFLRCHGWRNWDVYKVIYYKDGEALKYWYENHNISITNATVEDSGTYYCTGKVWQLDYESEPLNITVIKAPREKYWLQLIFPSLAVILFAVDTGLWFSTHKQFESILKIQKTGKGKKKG
Sequence of Human-Rat chimeric FcεRI α-chain protein (chimeric FcεRI on the cell membrane of HuRa clones) (human (extracellular domain) and rat (transmembrane and intracellular domains); rat) (P13386 whole entry, stated change not applied, form in doubt, chain 2 of 3, the tested form may be a part): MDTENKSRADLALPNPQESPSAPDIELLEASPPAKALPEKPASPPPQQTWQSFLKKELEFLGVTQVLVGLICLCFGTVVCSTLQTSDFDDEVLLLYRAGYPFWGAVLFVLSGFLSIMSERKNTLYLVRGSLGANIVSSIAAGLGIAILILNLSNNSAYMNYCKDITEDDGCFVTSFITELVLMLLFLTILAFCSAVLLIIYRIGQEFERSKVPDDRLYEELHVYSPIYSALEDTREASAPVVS
Sequence of Human-Rat chimeric FcεRI α-chain protein (chimeric FcεRI on the cell membrane of HuRa clones) (human (extracellular domain) and rat (transmembrane and intracellular domains); rat) (P20411 19-86, stated change not applied, form in doubt, chain 3 of 3): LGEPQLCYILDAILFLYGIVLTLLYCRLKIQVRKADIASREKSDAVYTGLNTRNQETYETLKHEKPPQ

**Q.** How did the luciferase expression level (NF-AT reporter), IgE-sensitized (aIgE) against not sensitized (no IgE) cells, stimulated with anti-human IgE antibody; seven HuRa clones turn out when “purified human IgE (ab65866, Abcam) (from UniProt P01854 1-428) (antibody)” was run?
**A.** 100 times
